Assay results: PMC3648463, “Common Interactions between S100A4 and S100A9 Defined by a Novel Chemical Probe” (PLoS ONE, 2013)

Legend:
recombinant human S100A9 = target: T1, recombinant human S100A9 (human, UniProt P06702 1-114); experiment: SPR; S100A1, A4, A7, A9 and A13 (~1.3 µg/mL) injected (2 min at 30 µL/min) over immobilised S100A4 and S100A9 (~2.5 kRU); 1 mM Ca++ and 20 µM Zn++; responses at late association phase; details: both partners purified
T1 construct: S100A9, human, recombinant; No oligomer size was measured here; also called S100A9 homodimer; source: produced in E. coli at Active Biotech
T1 sequence (looked up): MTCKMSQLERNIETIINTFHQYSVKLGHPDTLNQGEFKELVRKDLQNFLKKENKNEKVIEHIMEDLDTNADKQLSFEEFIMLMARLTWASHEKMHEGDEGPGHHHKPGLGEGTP

[1] = target: the molecule itself; experiment: as above

- binding result (recombinant human S100A9): binds
B1: recombinant human S100A4 (natural protein)
chain: not shown
notes: S100A4, human, recombinant (R&D Systems); No catalogue number, limits or tags are stated; also called S100A4 homodimer; metastasin; source: bought: R&D Systems
- binding result [1]: binds
